# Test results: PMC4890318
# Molecular target: wild-type human dopamine transporter (human) (UniProt Q01959)
# Sequence of UniProt Q01959 (Q01959 whole entry): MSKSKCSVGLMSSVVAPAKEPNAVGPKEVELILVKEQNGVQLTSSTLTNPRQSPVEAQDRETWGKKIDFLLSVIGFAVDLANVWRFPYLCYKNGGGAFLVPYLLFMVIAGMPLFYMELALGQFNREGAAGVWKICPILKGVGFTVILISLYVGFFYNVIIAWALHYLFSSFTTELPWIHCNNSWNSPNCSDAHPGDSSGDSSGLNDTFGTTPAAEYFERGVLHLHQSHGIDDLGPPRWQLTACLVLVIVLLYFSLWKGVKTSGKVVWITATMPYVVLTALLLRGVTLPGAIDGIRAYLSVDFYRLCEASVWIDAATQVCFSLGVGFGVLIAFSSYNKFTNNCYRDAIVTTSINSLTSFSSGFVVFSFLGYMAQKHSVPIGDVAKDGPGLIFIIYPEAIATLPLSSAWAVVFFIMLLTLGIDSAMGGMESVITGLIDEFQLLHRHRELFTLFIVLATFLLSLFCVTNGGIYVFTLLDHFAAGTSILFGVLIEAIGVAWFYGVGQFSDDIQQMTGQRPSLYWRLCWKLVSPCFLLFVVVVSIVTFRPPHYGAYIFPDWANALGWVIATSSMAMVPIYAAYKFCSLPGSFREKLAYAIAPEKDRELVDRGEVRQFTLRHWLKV
substance,measurement,value
recombinant HIV-1 Tat 1-86 (from UniProt P04608 1-86) (natural protein),"decrease of [3H]DA uptake in PC12 cells transfected with WT hDAT after 20 min preincubation with 140 nM Tat1-86, against control without Tat",35%
